US20260028391A1
pKd: −log10 of the molar value. Read-outs that look alike come from different tables or passages of the source.

Key:
RSV F B N208D (RSV B) = test: FACS, % binding to RSV F B variants
[1] = target: RSV F B K68N-N201S (RSV B); test: FACS, % binding to RSV F B variants
[2] = target: RSV F B K68N-N208S (RSV B); test: FACS, % binding to RSV F B variants
RSV F B N208S (RSV B) = test: FACS, % binding to RSV F B variants
RSV F B S443P (RSV B) = test: FACS, % binding to RSV F B variants
RSV F B N201S (RSV B) = test: FACS, % binding to RSV F B variants
RSV F B, B Ref (RSV B) = test: FACS, % binding to RSV F B variants
RSV-B F (RSV B) [3] = test: BLI
RSV-A F (RSV A) [4] = test: BLI
[5] = target: RSV F A S433P (RSV A, strain A2) (UniProt P03420); test: FACS, % binding to RSV F A variants
[6] = target: RSV F A, A2 Ref (RSV A, strain A2) (UniProt P03420); test: FACS, % binding to RSV F A variants
[7] = target: RSV F A L203I (RSV A, strain A2) (UniProt P03420); test: FACS, % binding to RSV F A variants
[8] = target: RSV F A S433P-G446E (RSV A, strain A2) (UniProt P03420); test: FACS, % binding to RSV F A variants
[9] = target: RSV F A N208Y-N671I (RSV A, strain A2) (UniProt P03420); test: FACS, % binding to RSV F A variants
[10] = target: RSV F A S443P-K445N (RSV A, strain A2) (UniProt P03420); test: FACS, % binding to RSV F A variants
[11] = target: RSV F A G446E (RSV A, strain A2) (UniProt P03420); test: FACS, % binding to RSV F A variants
[12] = target: biot-RSV-F wt (respiratory syncytial virus (RSV)); test: BLI (Octet), biotinylated F on SA sensors, mAb 5 µg/ml
[13] = target: RSV A Randall fusion glycoprotein (F) (RSV A, strain Randall); test: cell-based or functional assay
[14] = target: RSV-long strain fusion glycoprotein (F) (RSV, long strain) (UniProt P12568); test: cell-based or functional assay
[15] = target: fusion glycoprotein (F) of RSV A GFP (Tables 41 and 42) (respiratory syncytial virus A); test: cell-based or functional assay
[16] = target: fusion glycoprotein (F) of MPV A GFP (Tables 41 and 43) (metapneumovirus A); test: cell-based or functional assay
[17] = target: RSV A fusion glycoprotein (F), virus of the neutralisation assays of Tables 54 and 57 (RSV A); test: cell-based or functional assay
[18] = target: RSV B 9719/09 fusion glycoprotein (F) (RSV B, strain 9719/09); test: cell-based or functional assay
[19] = target: RSV-B B9320 F protein (RSV B, strain B9320); test: cell-based or functional assay
[20] = target: fusion glycoprotein (F) of RSV B GFP (Tables 41 and 42) (respiratory syncytial virus B); test: cell-based or functional assay
[21] = target: RSV-B B18537/62 F protein (RSV B, strain B18537/62) (UniProt P13843); test: cell-based or functional assay
[22] = target: RSV A2 BPR-344-00 (BEI NR-12149) fusion glycoprotein (F) (RSV A, strain A2) (UniProt P03420); test: cell-based or functional assay
[23] = target: RSV B1 BPR-348-00 (BEI NR-4052) fusion glycoprotein (F) (RSV B, strain B1) (UniProt O36634); test: cell-based or functional assay
[24] = target: RSV A 2000/3-4 fusion glycoprotein (F) (RSV A, strain A 2000/3-4); test: cell-based or functional assay
[25] = target: RSV B (screening GFP strain) fusion glycoprotein (F) (RSV B); test: cell-based or functional assay
[26] = target: RSV A 2001/3-12 fusion glycoprotein (F) (RSV A, strain A 2001/3-12); test: cell-based or functional assay
[27] = target: RSV A2 (screening GFP strain) fusion glycoprotein (F) (RSV A); test: cell-based or functional assay
[28] = target: RSV Ds Red 5 fusion glycoprotein (F) (RSV, strain printed as Ds Red 5); test: cell-based or functional assay
[29] = target: RSV A1998/3-2 fusion glycoprotein (F) (RSV A, strain A1998/3-2); test: cell-based or functional assay
[30] = target: RSV A1997/12-35 fusion glycoprotein (F) (RSV A, strain A1997/12-35); test: cell-based or functional assay
[31] = target: RSV A2 VR 1540 fusion glycoprotein (F) (RSV A, strain A2 (VR 1540)) (UniProt P03420); test: cell-based or functional assay
[32] = target: RSV A2 BPR-344-00 (BEI NR-12149) fusion glycoprotein (F) (RSV A, strain A2) (UniProt P03420); test: cell-based or functional assay; remark: listed apart in the source
RSV-B F (RSV B) [33] = test: affinity; method not given
RSV-A F (RSV A) [34] = test: affinity; method not given

MEDI8897-rIgG1-YTE (antibody)
% binding (RSV F B N208D (RSV B)): 0.026% | % binding [1]: 0.056% | % binding [2]: 0.031% | % binding (RSV F B N208S (RSV B)): 0.035% | % binding (RSV F B S443P (RSV B)): 38.5% | % binding (RSV F B N201S (RSV B)): 27.3% | % binding (RSV F B, B Ref (RSV B)): 57.3% | pKd (RSV-B F (RSV B) [3]): 9.66 | pKd (RSV-A F (RSV A) [4]): 10.46 | % binding [5]: 35.3% | % binding [6]: 60.2% | % binding [7]: 0.04% | % binding [8]: 35.8% | % binding [9]: 0.049% | % binding [10]: 34.5% | % binding [11]: 28.5% | pKd [12]: 10.40 | IC50, virus neutralization [13]: 2.42 ng/mL | EC50, virus neutralization (Fab testing) [14]: 0.0069 nM | IC50 (ng/ml), RSV A GFP neutralization [15]: 0.483 ng/mL | IC50 (ng/ml), MPV A GFP neutralization [16]: > 2000 ng/mL | IC50, neutralization of RSVA [17]: 7.74 ng/mL | IC50, virus neutralization [18]: 1.25 ng/mL | EC50, virus neutralization (Fab testing) [19]: 0.0102 nM | IC50 (ng/ml), RSV B GFP neutralization [20]: 0.419 ng/mL | EC50, virus neutralization (Fab testing) [21]: 0.011 nM | IC50, virus neutralization [22]: 0.2 ng/mL | EC50, virus neutralization (Fab testing) [23]: 0.0088 nM | IC50, virus neutralization [23]: 0.4 ng/mL | IC50, virus neutralization [24]: 0.57 ng/mL | IC50, virus neutralization [25]: 1.14 ng/mL | IC50, virus neutralization [26]: 0.63 ng/mL | IC50, virus neutralization [27]: 1.02 ng/mL | IC50, virus neutralization [28]: 0.48 ng/mL | IC50, virus neutralization [29]: 0.9 ng/mL | IC50, virus neutralization [30]: 0.76 ng/mL | IC50, virus neutralization [31]: 1.14 ng/mL | IC50, virus neutralization [32]: 1.01 ng/mL | pKd (RSV-B F (RSV B) [33]): 8.91 | pKd (RSV-A F (RSV A) [34]): 12.00
